Test results published in publication PMC9900795 (bioRxiv, 2023).

Tests used:
Experiment in all cases: pull-down
[1] = biological target: Ndel1^ΔCTCC, Ndel1 with the C-terminal coiled-coil containing the purported heavy chain-binding site deleted (UniProt Q9GZM8)
[2] = biological target: NT-Ndel1, truncation of Ndel1 containing only the N-terminal coiled-coil (UniProt Q9GZM8)
[3] = biological target: FL-Ndel1^PM, full-length Ndel1 with the five sites phosphorylated by CDK5 mutated to aspartic acid (UniProt Q9GZM8)
[4] = biological target: FL-Ndel1^PM, full-length Ndel1 with the five sites phosphorylated by CDK5 mutated to aspartic acid (UniProt Q9GZM8); remark: listed apart in the source
[5] = biological target: T1, Lis1 (UniProt P43034 1-410)
T1 sequence: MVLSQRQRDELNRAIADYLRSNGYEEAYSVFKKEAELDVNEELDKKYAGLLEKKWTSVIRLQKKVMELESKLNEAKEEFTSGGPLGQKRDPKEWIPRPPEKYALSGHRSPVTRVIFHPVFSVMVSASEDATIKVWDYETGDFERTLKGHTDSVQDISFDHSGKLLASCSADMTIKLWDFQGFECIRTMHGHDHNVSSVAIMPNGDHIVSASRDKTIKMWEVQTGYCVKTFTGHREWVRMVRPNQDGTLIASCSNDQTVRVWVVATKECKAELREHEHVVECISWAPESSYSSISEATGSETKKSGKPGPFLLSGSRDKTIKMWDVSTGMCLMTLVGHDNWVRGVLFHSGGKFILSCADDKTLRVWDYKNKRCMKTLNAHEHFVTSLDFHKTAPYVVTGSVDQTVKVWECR

Molecule: SNAP-tagged, recombinant full-length human dynein with all associated accessory chains (from UniProt Q14204;O43237;P63172;Q9NP97;P63167) (complex)
- Kd [1]: 55 nM
- Kd [2]: 79 nM
- fold higher affinity than FL-Ndel1 [3]: 2 fold

B1: Lis1 (natural protein)
chain: MVLSQRQRDELNRAIADYLRSNGYEEAYSVFKKEAELDVNEELDKKYAGLLEKKWTSVIRLQKKVMELESKLNEAKEEFTSGGPLGQKRDPKEWIPRPPEKYALSGHRSPVTRVIFHPVFSVMVSASEDATIKVWDYETGDFERTLKGHTDSVQDISFDHSGKLLASCSADMTIKLWDFQGFECIRTMHGHDHNVSSVAIMPNGDHIVSASRDKTIKMWEVQTGYCVKTFTGHREWVRMVRPNQDGTLIASCSNDQTVRVWVVATKECKAELREHEHVVECISWAPESSYSSISEATGSETKKSGKPGPFLLSGSRDKTIKMWDVSTGMCLMTLVGHDNWVRGVLFHSGGKFILSCADDKTLRVWDYKNKRCMKTLNAHEHFVTSLDFHKTAPYVVTGSVDQTVKVWECR
- Kd [4]: 4 nM

B2: full-length Ndel1 (FL-Ndel1), HaloTag at the N-terminus and 6X-His tag at the C-terminus (natural protein)
chain: MDGEDIPDFSSLKEETAYWKELSLKYKQSFQEARDELVEFQEGSRELEAELEAQLVQAEQRNRDLQADNQRLKYEVEALKEKLEHQYAQSYKQVSVLEDDLSQTRAIKEQLHKYVRELEQANDDLERAKRATIVSLEDFEQRLNQAIERNAFLESELDEKESLLVSVQRLKDEARDLRQELAVRERQQEVTRKSAPSSPTLDCEKMDSAVQASLSLPATPVGKGTENTFPSPKAIPNGFGTSPLTPSARISALNIVGDLLRKVGALESKLAACRNFAKDQASRKSYISGNVNCGVLNGNGTKFSRSGHTSFFDKGAVNGFDPAPPPPGLGSSRPSSAPGMLPLSV
- Kd [5]: ~4 nM

B3: NT-Ndel1, truncation of Ndel1 containing only the N-terminal coiled-coil (domain or fragment)
chain: MDGEDIPDFSSLKEETAYWKELSLKYKQSFQEARDELVEFQEGSRELEAELEAQLVQAEQRNRDLQADNQRLKYEVEALKEKLEHQYAQSYKQVSVLEDDLSQTRAIKEQLHKYVRELEQANDDLERAKRATIVSLEDFEQRLNQAIERNAFLESELDEKESLLVSVQRLKDEARDLRQELAVRERQQEVTR
- Kd [5]: ~1.2 nM
